Data: patent US6750325 (CELLTECH R AND D, dated 2004)

Molecular target: T1, CD3 antigen of the T-cell receptor-CD3 complex on human T cells (human, UniProt P07766 23-207)
T1 construct: whole, on cells; also called OKT3 antigen
Assay: antigen binding assay on CD3 positive cells, COS cell supernatant (cell line not restated)
Experimental: The procedure was as follows:
HUT 78 cells (human T cell line, CD3 positive) were maintained in culture. Monolayers of HUT 78 cells were prepared onto 96 well ELISA plates using poly-L-lysine and glutaraldehyde. Samples were added to the monolayers for 1 hour at room temperature. The plates were washed gently using PBS. F(ab')_2 goat anti-human IgG Fc (HRPO conjugated) or F(ab')_2 goat anti-mouse IgG Fc (HRPO conjugated) was added as appropriate for humanised or mouse samples. Substrate was added to reveal the reaction. The negative control for the cell-based assay was chimer B72.3. […] Binding was measured by the following procedure: HPB-ALL cells were harvested from tissue culture. Cells were incubated at 4° C. for 1 hour with various dilutions of test antibody, positive control antibody, or negative control antibody. The cells were washed once and incubated at 4° C. for 1 hour with an FITC-labelled goat anti-human IgG (Fc– specific, mouse absorbed). The cells were washed twice and analysed by cytofluorography. […] Cells incubated with mock-transfected COS cell supernatant, followed by the FITC-labelled goat anti-human IgG, provided the negative control. […] The samples were incubated for 1 hour at 4° C., washed twice and analysed by cytofluorography.

B1: fully CDR-grafted antibody kgL221A with gH341 (kgL221A/kgH341) (antibody, V domains shown)
VH: QVQLVESGGGVVQPGRSLRLSCSSSGYTFTRYTMHWVRQAPGKGLEWVAYINPSRGYTNYNQKFKDRFTISRDNSKNTLFLQMDSLRPEDTGVYFCARYYDDHYCLDYWGQGTTLTVSS
VL: QIVMTQSPSSLSASVGDRVTITCSASSSVSYMNWYQQTPGKAPKRWIYDTSKLASGVPSRFSGSGSGTDYTFTISSLQPEDIATYYCQQWSSNPFTFGQGTKLQIT
notes: Expression was very low; also called kgH221A/gH341; kgH221A/kgH341
  binding result: no binding
